From patent US12565517B2, “Cyclic peptide having CTLA-4 inhibitory activity and use thereof” (GeneFrontier Corporation, priority 2019, dated 2026)
Where a SMILES comes first, the peptide text is derived from it. Bridges are numbered along the chain shown (N, C = ends). Where no end group is shown, it is not given here. The star is where a group is joined. Biotin = O=C1N[C@H]2[C@H](CS[C@H]2CCCCC(=O)*)N1; PEG4 = NCCOCCOCCOCCOCCC(=O)O

What was measured:
CTLA-4 [1] = target: T1, CTLA-4 (Homo sapiens, UniProt P16410); assay: Affinity measurement of synthetic biotinylated peptides by BLItz system (peptide on SA sensor chip); type: binding
T1 sequence (P16410 36-223): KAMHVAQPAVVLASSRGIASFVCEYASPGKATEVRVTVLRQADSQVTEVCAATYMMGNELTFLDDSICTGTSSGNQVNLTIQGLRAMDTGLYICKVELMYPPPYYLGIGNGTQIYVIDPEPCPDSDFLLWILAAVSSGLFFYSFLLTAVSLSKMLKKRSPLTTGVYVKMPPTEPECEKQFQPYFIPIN
Procedure: Affinity for CTLA-4 was measured using the BLItz system (forte Bio). All operations were performed according to the instruction manual of the BLItz system. The biotinylated peptides were immobilized on the SA sensor chip via streptavidin.

CTLA-4 [2] = target: T1, CTLA-4; assay: ELISA binding of clones after Affinity Maturation with random library (Tables 10, 11); settings: CTLA-4 binding ELISA of clones after Affinity Maturation from random (NNS) library; signal/noise ratio; clones of 4th or 5th round
Procedure: (§1) After each round of Affinity Maturation, the cyclic peptide genes were recovered and subcloned into pET-Mal vector (FIG. 2) in the same manner as described above to perform base sequence analysis. For the 94 single colonies analyzed for sequence, E. coli transformants were inoculated into 100 μL of 2×YT medium containing ampicillin (final concentration 50 μg/mL), incubated at 37° C. for 3-5 hours (OD600=0.5-0.8), then added with IPTG (final concentration 0.5 mM) and incubated at 25° C. overnight. 10 μL of E. coli cultured medium was added with 90 μL of PBS and 40 μL of lysis reagent (20 μL BugBuster Protein Extraction Reagent (Novagen), 20 μL Lysozyme solution 2.5 mg/mL) to lyse E. coli cells for 1 hour at room temperature. The cell lysate was added with 40 μL of 12.5% skim milk solution (TBST) and blocked for 1 hour at room temperature. In parallel, antigen protein was immobilized overnight at 4° C. in 384-well plates at 100 ng/20 μL per well, and each well was washed twice with 100 μL/well of TBST, added with 100 μL/well of 5% skim milk solution (TBST) for blocking for 1 hour at room temperature, and washed twice with 100 μL/well of TBST to obtain antigen-immobilized plates. 20 μL/well of blocking-treated E. coli extract was added to the antigen-immobilized plates and gently stirred at room temperature using a plate mixer. After 1 hour, the plates were washed 5 times with 100 μL/well of TBST, 20 μL/well of anti-FLAG M2-HRP conjugate (1:2000 dilution, Sigma) was added and gently stirred on a plate mixer for 1 hour at room temperature. The plates were washed 5 times with 100 μL/well of TBST, and binding of cyclic peptides to the antigen was detected by 20 μL/well of chromogenic substrate (0.4 mg/mL 3,3′,5,5′-Tetramethyl-benzidine, 0.01% hydrogen peroxide). After 15 minutes of reaction at room temperature, the reaction was stopped with 20 μL/well of 2N HCl, and absorbance at 450 nm was measured using a plate reader (infinite F200: TECAN) (Table 5).
Oligo DNAs of a library were synthesized (see below), in which amino acid residues (positions 1, 4, 8, 10, +1 and +2) (corresponding to X1, […], X8, X10, X+1 and X+2) other than those essential or advantageous for CTLA-4 binding (2H, 3P, 5L, 6P, 7I, 9S, 11H, 12F) identified by alanine scanning were randomized (NNS).
Affinity Maturation was performed in the same manner as described above. The amount of biotinylated CTLA-4 immobilized on the magnetic beads was 10 pmol in the 1st round, 2 pmol in the 2nd round, and 1 pmol in the 3nd-5th rounds, respectively. The washing period was 2 hours for the 1st round, 19 hours for the 2nd round, 67 hours for the 3nd round, 140 hours for the 4th round, and 340 hours for the 5th round. Washing frequency was 1 time (2 hours) in the 1st round, 2 times (every 10 hours) in the 2nd round, 6 times (every 10 hours) in the 3rd round, 14 times (every 10 hours) in the 4th round, and 36 times (every 10 hours) in the 5th round.

SA = SA (Streptomyces avidinii, UniProt P22629); assay: ELISA background signal of MBP-fused cyclic peptides on SA wells (Table 5); type: binding; settings: MBP-fused cyclic peptide
Procedure: as §1
An Error-Prone Library was prepared based on H12SSI-Ctla4-3-02, and Affinity Maturation selection experiments were performed. […]

CTLA-4 [3] = target: T1, CTLA-4; assay: Affinity measurement of CTLA-4 binding clones after Affinity Maturation (EC50 by ELISA, Table 6)
Procedure: For each of the CTLA-4 binding clones obtained by Affinity Maturation, purified N-terminal MBP fusion protein solution (400 μg/mL) was prepared and samples serially 2-fold diluted with PBS were prepared. CTLA-4 was immobilized overnight at 4° C. in 384-well plates at 100 ng/20 μL per well, and each well was washed twice with 100 μL/well of TBST, added with 100 μL/well of 5% skim milk solution (TBST) for blocking for 1 hour at room temperature, and washed twice with 100 μL/well of TBST to obtain antigen-immobilized plates. 20 μL/well of serially-diluted N-terminal MBP fusion protein solution was added to the antigen-immobilized plates and gently stirred at room temperature using a plate mixer. After 1 hour, the plates were washed 5 times with 100 μL/well of TBST, 20 μL/well of anti-FLAG M2-HRP conjugate (1:2000 dilution, Sigma) was added and gently stirred on a plate mixer for 1 hour at room temperature. Further, the plates were washed 5 times with 100 μL/well of TBST, and binding of N-terminal MBP fusion proteins to the antigen was detected by 20 μL/well of chromogenic substrate (0.4 mg/mL 3,3′,5,5′-Tetramethyl-benzidine, 0.01% hydrogen peroxide). After 15 minutes of reaction at room temperature, the reaction was stopped with 20 μL/well of 2N HCl, and absorbance at 450 nm was measured using a plate reader (infinite F200: TECAN). The graph was plotted with the vertical axis as the absorbance of ELISA and the horizontal axis as the concentration of N-terminal MBP fusion protein of the CTLA4-binding clones (FIG. 5), and the EC50 was calculated from the obtained binding curve (Table 6).

CTLA-4 [4] = target: T2, CTLA-4 (Homo sapiens, UniProt P16410); assay: Evaluation of binding after Affinity Maturation selection by ELISA (S/N ratio, Table 5)
T2 construct: IgG1 Fc (own knowledge: Orencia = abatacept, CTLA4-Ig)
Procedure: The basic operation of ribosome display was performed in the same manner as described above. Detailed experimental conditions for Affinity Maturation are indicated below. 2 μL of Nanolink streptavidin magnetic beads (SoluLink) were used as magnetic beads to immobilize the antigen, and 1 mL of CTLA-4 protein solution (1 μM) was used as a wash solution. The amount of biotinylated CTLA-4 immobilized on the magnetic beads was 10 pmol in the 1st round, 2 pmol in the 2nd round, and 1 pmol in the 3rd round, respectively. The washing period was 2 hours for the 1st round, 19 hours for the 2nd round, and 67 hours for the 3rd round. The number of wash cycle was one time (2 hours) in the 1st round, two times (about every 10 hours) in the […], and six times (about every 10 hours) in the 3rd round. After each round of RT-PCR, Error-Prone PCR was performed in the same manner as described above.
as §1
T2 sequence (P16410 with tags, fused parts or gaps limits assumed): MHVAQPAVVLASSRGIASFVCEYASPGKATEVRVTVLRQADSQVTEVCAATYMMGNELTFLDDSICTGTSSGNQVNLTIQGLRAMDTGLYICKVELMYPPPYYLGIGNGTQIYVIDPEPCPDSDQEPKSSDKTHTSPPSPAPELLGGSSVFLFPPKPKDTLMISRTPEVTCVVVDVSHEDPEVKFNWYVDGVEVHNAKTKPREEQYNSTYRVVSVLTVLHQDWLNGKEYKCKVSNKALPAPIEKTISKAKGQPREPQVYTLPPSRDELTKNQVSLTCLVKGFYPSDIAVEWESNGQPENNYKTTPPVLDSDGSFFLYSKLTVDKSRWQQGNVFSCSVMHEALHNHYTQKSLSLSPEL

Row | Molecule | ELISA S/N(SA) (CTLA-4 [2]) | other results
1 | CSCC[C@@H]1NC(=O)[C@@H](NC(=O)[C@H](CCCCN)NC(=O)CCOCCOCCOCCOCCNC(=O)CCCC[C@@H]2SC[C@@H]3NC(=O)N[C@@H]32)CSSC[C@@H](C(=O)O)NC(=O)[C@H](Cc2ccccc2)NC(=O)[C@H](Cc2c[nH]cn2)NC(=O)[C@H](Cc2c[nH]cn2)NC(=O)[C@H](CO)NC(=O)[C@H](C(C)C)NC(=O)[C@H](C(C)C)NC(=O)[C@H](CC(C)C)NC(=O)[C@H](CC(C)C)NC(=O)[C@H](Cc2ccccc2)NC(=O)[C@@H]2CCCN2C(=O)[C@H](Cc2c[nH]cn2)NC1=O [biotinylated H12SSI-Ctla4-3-02] ({Biotin-PEG4}-KCMHPFLLVVSHHFC-OH; disulfide 2-15; C-terminus assumed) | – | kon (CTLA-4 [1]; read-out: ka): 115000 M⁻¹ s⁻¹; kd (CTLA-4 [1]; synthetic Biotin-PEG4-Lys peptide immobilized, BLItz): 0.022 s⁻¹
2 | C4m#19-5th4w-NN6-70 (GGCMHPFLPIRSMHFCPL; C4m#19-5th4w-NN6-70) | 35.5 | –
3 | C4m#19-5th4w-NN6-71 (GGCPHPWLPIASVHFCPF; C4m#19-5th4w-NN6-71) | 17.4 | –
4 | C4m#19-5th4w-NN6-75 (GGCWHPFLPIKSVHFCCA; C4m#19-5th4w-NN6-75) | 5.6 | –
5 | C4m#19-5th4w-NN6-77 (GGCRHPFLPIVSTHFCSR; C4m#19-5th4w-NN6-77) | 30.5 | –
6 | C4m#19-5th4w-NN6-78 (GGCWHPALPIRSWHFCPR; C4m#19-5th4w-NN6-78) | 27.9 | –
7 | C4m#19-5th4w-NN6-79 (GGCWHPVLPIRSCHFCAV; C4m#19-5th4w-NN6-79) | 24.9 | –
8 | C4m#19-5th4w-NN6-83 (GGCLHPLLPILSVHFCPS; C4m#19-5th4w-NN6-83) | 12.0 | –
9 | C4m#19-5th4w-NN6-85 (GGCWHPFLPIFSVHFCGC; C4m#19-5th4w-NN6-85) | 22.9 | –
10 | C4m#19-5th4w-NN6-86 (GGCAHPVLPIRSLHFCPH; C4m#19-5th4w-NN6-86) | 19.7 | –
11 | C4m#19-5th4w-NN6-87 (GGCLHPVLPIRSFHFCWR; C4m#19-5th4w-NN6-87) | 21.4 | –
12 | C4m#19-5th4w-NN6-91 (GGCMHPYLRIISPHFCRG; C4m#19-5th4w-NN6-91) | 30.0 | –
13 | C4m#19-5th4w-NN6-92-1 (GGCVHPFLPIRSVHFCAL; C4m#19-5th4w-NN6-92-1) | 30.0 | –
14 | C4m#19-5th4w-NN6-93 (GGCCHPWLPIVSTHFCGL; C4m#19-5th4w-NN6-93) | 28.9 | –
15 | C4m#19-6th4w-NN6-5-3 (GGCWHPFLPILSLHFCGW; left off: large carriers; small tags and cut ends) | 14.7 | –
16 | C4n#19-5th2w-NNS6-71 (GGCRHPYLPIASPHFCPG; left off: large carriers; small tags and cut ends) | 22.9 | –
17 | CLHPFLPIVSHHFCGR (cysteine pairing not given here; also: MBP fusion) [#10] | – | ELISA MBP-fusion SA (absorbance at 450 nm) (SA): 0.0617; CTLA-4 affinity improved over the original clone (CTLA-4 [3]; EC50 by ELISA, MBP fusion cyclic peptides): about 50 fold; EC50 (CTLA-4 [3]; N-terminal MBP fusion protein of the CTLA-4 binding clone, EC50 calculated from ELISA binding curve): 82 nM; ELISA MBP-fusion Orencia (absorbance at 450 nm) (CTLA-4 [4]; MBP-fused cyclic peptide, Orencia wells, absorbance at 450 nm): 1.1444; ELISA MBP-fusion S/N(SA) (CTLA-4 [4]; ratio of Orencia signal to SA signal, binding = S/N not less than 2): 18.5

Second part, led by results:

Row | ELISA S/N(SA) (CTLA-4 [2]) | Molecule | other results
18 | 4.6 | C4m#19-5th4w-NN6-72 (GGCWHPWLPIVSVHFCGC; C4m#19-5th4w-NN6-72) | –
19 | 15.1 | C4m#19-5th4w-NN6-74 (GGCFHPFLPIYSWHFCAR; C4m#19-5th4w-NN6-74) | –
20 | 3.8 | C4m#19-5th4w-NN6-80 (GGCRHPFLPIFSWHFCAV; C4m#19-5th4w-NN6-80) | –
21 | 32.3 | C4m#19-5th4w-NN6-81 (GGCFHPYLPIRSWHFCSR; C4m#19-5th4w-NN6-81) | –
22 | 28.3 | C4m#19-5th4w-NN6-82 (GGCFHPFLPIRSLHFCCR; C4m#19-5th4w-NN6-82) | –
23 | 8.3 | C4m#19-5th4w-NN6-89 (GGCMHPFLPIISQHFCAF; C4m#19-5th4w-NN6-89) | –
24 | 21.2 | C4m#19-5th4w-NN6-90 (GGCRHPWLPIVSYHFCSS; C4m#19-5th4w-NN6-90) | –
25 | 5.0 | C4m#19-5th4w-NN6-94 (GGCLHPFLPIYSLHFCPC; C4m#19-5th4w-NN6-94) | –
